Laboratory results from patent publication US20110207917A1 (PATRYS, published 2011).

Biological target: T1, CD55 antigen (coated on ELISA plate) (UniProt P08174 35-353, limits assumed)
T1 sequence (looked up): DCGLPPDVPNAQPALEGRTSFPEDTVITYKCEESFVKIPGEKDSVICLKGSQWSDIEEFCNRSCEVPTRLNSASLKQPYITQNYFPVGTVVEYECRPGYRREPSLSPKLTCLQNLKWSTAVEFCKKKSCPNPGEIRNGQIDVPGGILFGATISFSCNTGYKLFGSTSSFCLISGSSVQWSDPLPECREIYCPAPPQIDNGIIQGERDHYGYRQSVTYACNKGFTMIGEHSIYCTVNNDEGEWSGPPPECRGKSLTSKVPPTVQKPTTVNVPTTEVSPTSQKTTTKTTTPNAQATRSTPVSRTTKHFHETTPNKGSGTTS
Assay: ELISA on coated CD55 antigen (0.5 µg/well)
Method: In brief, CD55 antigen (0.5 μg/well) was coated in a volume of 50 μl/well. The primary antibody was incubated at 12 μg/ml (0.6 μg/well). Buffer was pH6.5 and for the dilution buffer used was High salt pH8.0.

binding result: no binding (tested: 12 µg/ml)
B1: SAM-6 antibody (human IgM produced by hybridoma deposited as DSM ACC2903) (antibody, V domains shown)
VH: GGGVVQPGRSLRLSCAASGFTFSSYAMHWVRQAPGKGLEWVAVISYDGSNKYYADSVKGRFTISRDNSKNTLYLQMNSLRAEDTAVYYCARDRLAVAGRPFDYWGQGTLVTVSS
VL: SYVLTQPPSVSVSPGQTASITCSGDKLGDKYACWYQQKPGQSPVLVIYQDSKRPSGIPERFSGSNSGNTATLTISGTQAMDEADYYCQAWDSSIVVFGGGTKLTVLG
notes: Human IgM, lambda light chain, purified from hybridoma supernatant; CDR-H3 was not observed; also called SAM-6 HAB; SAM-6 HAB IgM
